Results as given in paper PMC7040040.

Biological target: T1, pE3-Aβ(3–18) monomer
T1 chain: EFRHDSGYEVHHQKLV
Experiment: SPR (Biacore)
Details: chain shown with the change

B1: humanized PBD-C06 (CDR-grafted IgG1:kappa version) VL:F41L (protein)
chain 1: QVQLVQSGAEVKKSGASVKVSCKASGYSFTGYTMNWVRQAPGQGLEWMGLINPYNGVTRYNQKFKGRVTLIRDTSTTTVYMELTSLTSEDTAVYYCAREAKREWDETYWGQGTLVTVSS
chain 2: DVVMTQSPLSLPVTLGQPASISCKSSQSLLYSDGKTYLNWLQQRPGQSPRRLIYLVSKLDSGVPDRFSGSGSGTDFTLKISRVEAEDVGVYYCVQGTHFPFTFGGGTKVEIK
Q: How did the Kd turn out when B1 was run?
A: Its Kd is 162 nM.
